Test in all cases: BIAcore
In assay [1] the target is T1, recombinant IL-17RA (human, UniProt Q96F46 33-320).
The target in assay [2] is T1, recombinant IL-17RA. The source holds these as a separate data set.
In assay [3] the target is T2, Recombinant human IL-17A (Peprotech AF-200-17) (human, UniProt Q16552 24-155).
Assay [4] has as its target T2, Recombinant human IL-17A (Peprotech …). This is another data set of the same source.

Substitutions are numbered along the chain they refer to. Like-named read-outs stand apart in the source and are kept apart here.

T2 sequence (Q16552 24-155): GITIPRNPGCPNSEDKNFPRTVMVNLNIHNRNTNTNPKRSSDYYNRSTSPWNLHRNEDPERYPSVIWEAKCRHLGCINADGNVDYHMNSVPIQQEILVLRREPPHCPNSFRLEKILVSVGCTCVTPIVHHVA

B1: clone 2.1 VH (VHH)
VHH: QVQLVQSGAEVKKPGASVKVSCKASGYPFTSYDINWVRQATGQSLEWMGWMNPNSGDTVYAQKFQGRVTMTRNTSISTAYMELSSLRSEDTAVYFCARGRRDDWKNNYWGQGTLVTVSS
As a reminder, the Kd is the concentration at which binding is half-saturated. As to B1, the Kd in assay [1] and in assay [2] was 6 nM throughout.

B2: clone 2.2 VH (VHH)
VHH: B1 VHH with Q43R, N54T, S55N, D57N, G66D
Take B2: in assay [1], the equilibrium dissociation constant (Kd) was found to be 1.4 nM.

B3: clone 1.10 VH (VHH)
VHH: VQLVESGGGLVQPGGSLRLSCAASGFTFSSYRMYWVRQAPGKGLEWVASIEQDGSEEYYVDSVKGRFTISRDNAKKSLFLQMNSLRAEDTAVYYCAKGEILPLYFDYWGQGTLVTVSS
Take B3: the dissociation constant Kd in assay [3] stood at 1 nM.

B4: clone 1.1 VH (VHH)
VHH: EVQLVESGGGLVQPGGSLRLSCAASGFTFSSYSMYWVRQAPGKGLEWVANIKQDGSEKYYVDSVKGRFTISRDNAKNSLFLQMNSLRAEDTAVYYCAKGEILPLHFDYWGQGTLVTVSS
For B4, the Kd in assay [3] and in assay [4] was 5 nM in each case.

B5: clone 1.6 VH (VHH)
VHH: B4 VHH with N50E, K58Q, F80Y, H105Y
Regarding B5, the Kd in assay [3] was 0.63 nM.

For the origin of these results see US20180002403A1 (published 2018).
